Measured values reported in paper PMC12131814.

Columns and labels:
[1] = biological target: superfolder green fluorescent protein (sfGFP); assay: AUC
[2] = biological target: superfolder green fluorescent protein (sfGFP); assay: ITC
[3] = biological target: superfolder green fluorescent protein (sfGFP); assay: MST
[4] = biological target: superfolder green fluorescent protein (sfGFP); assay: MST; remark: listed apart in the source

Kd [1]: 1.72 nM
stoichiometry N [1]: 1
Kd [2]: 1 nM
dH [2]: -11.1 kcal/mol
Kd [3]: 1.52 nM
Kd [4]: 1.53 nM
B1: anti-GFP nanobody (GFP-enhancer) (VHH)
VHH: QVQLVESGGALVQPGGSLRLSCAASGFPVNRYSMRWYRQAPGKEREWVAGMSSAGDRSSYEDSVKGRFTISRDDARNTVYLQMNSLKPEDTAVYYCNVNVGFEYWGQGTQVTVSS
